Assay results as given in patent US20140271469A1 (Stanford University, published 2014).
Numbering of substitutions follows the chain as printed. Ends that are not written are not given here. * marks the point of attachment. DOTA = O=C(O)CN1CCN(CC(=O)O)CCN(CC(=O)*)CCN(CC(=O)O)CC1

Key:
[1] = target: T1, Recombinant human integrin αvβ6 (human, UniProt P06756 31-992; P18564 22-707); test: flow cytometry of yeast-displayed grafts with integrin αvβ6 (data not shown)
T1 construct: Bought soluble heterodimer; also called alpha-v-beta-6; avb6

[2] = target: T1, Recombinant human integrin αvβ6; test: flow cytometry, peptide displayed on yeast, soluble integrin αvβ6
[3] = target: Recombinant human integrin αvβ3 (human, UniProt P06756 31-992; P05106 27-718); test: flow cytometry, peptide displayed on yeast, soluble integrin (FIG. 1C)
[4] = target: Recombinant human integrin αvβ5 (human, UniProt P06756 31-992; P18084 24-719); test: as above
[5] = target: Recombinant human integrin α5β1 (human, UniProt P08648 42-995; P05556 21-728); test: as above
[6] = target: T1, Recombinant human integrin αvβ6; test: flow cytometry, 10 nM integrin αvβ6, relative to R02
[7] = target: T2, Recombinant human integrin αvβ6 (human), P06756; test: cell sorting study, peptide expressed on the surface of yeast
T2 chain 1: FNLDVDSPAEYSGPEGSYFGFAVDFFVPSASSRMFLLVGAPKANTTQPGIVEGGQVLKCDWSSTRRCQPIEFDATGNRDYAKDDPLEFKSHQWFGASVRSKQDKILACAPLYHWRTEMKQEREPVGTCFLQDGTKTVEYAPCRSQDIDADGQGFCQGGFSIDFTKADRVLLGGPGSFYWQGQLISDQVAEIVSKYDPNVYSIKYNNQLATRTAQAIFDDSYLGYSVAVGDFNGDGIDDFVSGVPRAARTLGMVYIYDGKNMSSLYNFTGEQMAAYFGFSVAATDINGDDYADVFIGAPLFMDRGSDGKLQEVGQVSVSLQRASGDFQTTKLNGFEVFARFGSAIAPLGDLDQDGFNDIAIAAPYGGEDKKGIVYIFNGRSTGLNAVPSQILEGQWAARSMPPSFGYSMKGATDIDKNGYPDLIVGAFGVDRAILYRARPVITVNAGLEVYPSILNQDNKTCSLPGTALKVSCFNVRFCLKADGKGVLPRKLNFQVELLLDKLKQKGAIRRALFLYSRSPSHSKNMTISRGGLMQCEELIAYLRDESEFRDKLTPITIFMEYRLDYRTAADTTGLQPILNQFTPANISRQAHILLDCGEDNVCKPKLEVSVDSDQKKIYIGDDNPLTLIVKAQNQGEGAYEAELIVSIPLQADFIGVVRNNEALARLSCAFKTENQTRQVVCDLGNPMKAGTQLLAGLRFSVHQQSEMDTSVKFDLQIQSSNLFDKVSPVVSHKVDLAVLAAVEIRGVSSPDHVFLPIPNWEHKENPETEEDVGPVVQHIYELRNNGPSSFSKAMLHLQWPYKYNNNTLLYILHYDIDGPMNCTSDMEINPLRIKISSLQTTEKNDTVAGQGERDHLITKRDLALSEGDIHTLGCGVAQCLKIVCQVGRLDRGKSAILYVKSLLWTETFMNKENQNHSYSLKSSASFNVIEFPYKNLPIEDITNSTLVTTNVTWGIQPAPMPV
T2 chain 2: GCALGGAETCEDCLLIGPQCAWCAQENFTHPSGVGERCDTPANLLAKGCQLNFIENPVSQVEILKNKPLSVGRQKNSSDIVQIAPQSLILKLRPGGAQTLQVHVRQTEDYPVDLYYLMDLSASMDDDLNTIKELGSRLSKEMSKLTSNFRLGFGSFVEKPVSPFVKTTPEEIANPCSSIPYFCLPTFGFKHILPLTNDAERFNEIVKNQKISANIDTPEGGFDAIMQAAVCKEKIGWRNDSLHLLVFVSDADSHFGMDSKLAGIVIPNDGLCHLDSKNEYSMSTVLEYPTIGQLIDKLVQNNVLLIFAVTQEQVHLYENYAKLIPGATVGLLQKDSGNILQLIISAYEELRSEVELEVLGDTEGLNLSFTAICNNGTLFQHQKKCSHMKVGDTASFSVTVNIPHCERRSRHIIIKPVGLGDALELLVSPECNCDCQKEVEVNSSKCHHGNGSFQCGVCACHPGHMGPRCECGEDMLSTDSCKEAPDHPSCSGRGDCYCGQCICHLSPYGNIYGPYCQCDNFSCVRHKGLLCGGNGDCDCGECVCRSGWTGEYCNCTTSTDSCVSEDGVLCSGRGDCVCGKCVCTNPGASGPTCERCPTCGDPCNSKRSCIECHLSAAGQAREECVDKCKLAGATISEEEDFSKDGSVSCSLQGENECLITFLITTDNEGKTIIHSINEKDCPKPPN

[8] = target: T1, Recombinant human integrin αvβ6; test: as above
[9] = target: T1, Recombinant human integrin αvβ6; test: binding of scrambled peptide to soluble integrin αvβ6, normalised to R02 at 1 nM (FIG. 3A)
[10] = target: T3, Native integrin αvβ6 on cells (BxPC-3, A431) (human, UniProt P06756 31-1048; P18564 22-788); test: cell uptake assay with radiolabeled peptide (FIG. 5)
T3 construct: whole, on cells; The cells also carry other integrins; also called integrin αvβ6 expressing cells; target expressing cells

Sequence of Recombinant human integrin αvβ3 (P05106 27-718, one chain of several): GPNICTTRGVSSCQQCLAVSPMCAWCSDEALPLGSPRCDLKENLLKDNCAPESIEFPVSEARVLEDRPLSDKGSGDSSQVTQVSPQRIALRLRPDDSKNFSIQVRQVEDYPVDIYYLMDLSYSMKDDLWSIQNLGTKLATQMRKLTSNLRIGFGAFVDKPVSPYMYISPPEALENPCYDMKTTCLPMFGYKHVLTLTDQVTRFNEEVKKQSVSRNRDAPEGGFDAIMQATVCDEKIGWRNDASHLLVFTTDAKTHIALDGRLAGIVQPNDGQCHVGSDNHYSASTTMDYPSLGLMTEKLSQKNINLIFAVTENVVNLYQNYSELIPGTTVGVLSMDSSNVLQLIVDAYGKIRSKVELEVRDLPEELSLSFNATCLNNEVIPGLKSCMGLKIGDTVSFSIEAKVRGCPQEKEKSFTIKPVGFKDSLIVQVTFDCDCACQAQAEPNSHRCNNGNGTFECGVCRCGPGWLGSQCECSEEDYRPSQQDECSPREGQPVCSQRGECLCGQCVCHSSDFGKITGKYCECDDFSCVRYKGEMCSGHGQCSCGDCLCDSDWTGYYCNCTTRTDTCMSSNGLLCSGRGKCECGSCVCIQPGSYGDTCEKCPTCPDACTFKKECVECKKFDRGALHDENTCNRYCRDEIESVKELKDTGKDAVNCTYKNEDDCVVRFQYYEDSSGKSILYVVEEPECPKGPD
Sequence of Recombinant human integrin αvβ5 (P18084 24-719, one chain of several): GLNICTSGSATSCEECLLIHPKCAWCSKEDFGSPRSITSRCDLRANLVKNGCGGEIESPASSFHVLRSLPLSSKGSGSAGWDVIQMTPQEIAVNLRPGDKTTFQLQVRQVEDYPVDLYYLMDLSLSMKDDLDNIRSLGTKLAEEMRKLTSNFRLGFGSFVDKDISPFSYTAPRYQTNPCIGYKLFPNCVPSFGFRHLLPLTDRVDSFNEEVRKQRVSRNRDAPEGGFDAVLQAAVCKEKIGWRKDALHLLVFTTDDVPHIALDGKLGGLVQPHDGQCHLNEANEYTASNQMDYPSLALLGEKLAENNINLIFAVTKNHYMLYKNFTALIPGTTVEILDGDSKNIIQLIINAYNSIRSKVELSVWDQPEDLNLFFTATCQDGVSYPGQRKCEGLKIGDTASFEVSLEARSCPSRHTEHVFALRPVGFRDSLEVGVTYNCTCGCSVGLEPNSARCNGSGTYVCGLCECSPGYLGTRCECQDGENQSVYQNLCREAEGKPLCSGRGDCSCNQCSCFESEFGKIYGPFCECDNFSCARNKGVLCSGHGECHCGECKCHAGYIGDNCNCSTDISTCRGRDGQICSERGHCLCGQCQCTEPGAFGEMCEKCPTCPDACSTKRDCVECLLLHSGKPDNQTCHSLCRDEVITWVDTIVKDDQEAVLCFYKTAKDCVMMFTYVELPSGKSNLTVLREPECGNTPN
Sequence of Recombinant human integrin α5β1 (P08648 42-995, chain 1 of 2): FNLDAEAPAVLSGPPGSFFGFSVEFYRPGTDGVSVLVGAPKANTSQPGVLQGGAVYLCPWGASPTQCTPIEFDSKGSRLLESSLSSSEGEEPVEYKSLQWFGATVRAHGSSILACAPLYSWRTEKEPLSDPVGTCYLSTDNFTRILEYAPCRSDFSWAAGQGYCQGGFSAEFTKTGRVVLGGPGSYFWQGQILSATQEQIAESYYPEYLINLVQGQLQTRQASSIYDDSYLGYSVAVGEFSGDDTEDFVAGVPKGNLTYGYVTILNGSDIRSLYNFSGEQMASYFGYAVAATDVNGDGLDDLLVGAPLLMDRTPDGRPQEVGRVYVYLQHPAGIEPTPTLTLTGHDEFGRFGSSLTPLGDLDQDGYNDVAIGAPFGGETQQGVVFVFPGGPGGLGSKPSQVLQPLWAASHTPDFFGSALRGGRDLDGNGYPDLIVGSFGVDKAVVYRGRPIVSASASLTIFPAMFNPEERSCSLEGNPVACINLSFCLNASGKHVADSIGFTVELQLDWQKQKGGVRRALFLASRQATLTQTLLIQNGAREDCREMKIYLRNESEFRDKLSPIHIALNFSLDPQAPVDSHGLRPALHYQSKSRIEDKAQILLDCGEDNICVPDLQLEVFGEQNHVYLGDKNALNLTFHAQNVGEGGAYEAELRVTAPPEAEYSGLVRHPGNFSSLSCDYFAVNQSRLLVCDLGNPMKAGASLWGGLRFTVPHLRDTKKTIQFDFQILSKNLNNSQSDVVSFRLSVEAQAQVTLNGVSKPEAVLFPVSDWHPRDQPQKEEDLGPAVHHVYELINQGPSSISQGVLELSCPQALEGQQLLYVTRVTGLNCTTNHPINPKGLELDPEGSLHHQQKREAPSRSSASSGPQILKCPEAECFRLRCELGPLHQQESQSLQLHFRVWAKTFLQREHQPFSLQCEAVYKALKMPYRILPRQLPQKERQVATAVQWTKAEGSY
Sequence of Recombinant human integrin α5β1 (P05556 21-728, chain 2 of 2): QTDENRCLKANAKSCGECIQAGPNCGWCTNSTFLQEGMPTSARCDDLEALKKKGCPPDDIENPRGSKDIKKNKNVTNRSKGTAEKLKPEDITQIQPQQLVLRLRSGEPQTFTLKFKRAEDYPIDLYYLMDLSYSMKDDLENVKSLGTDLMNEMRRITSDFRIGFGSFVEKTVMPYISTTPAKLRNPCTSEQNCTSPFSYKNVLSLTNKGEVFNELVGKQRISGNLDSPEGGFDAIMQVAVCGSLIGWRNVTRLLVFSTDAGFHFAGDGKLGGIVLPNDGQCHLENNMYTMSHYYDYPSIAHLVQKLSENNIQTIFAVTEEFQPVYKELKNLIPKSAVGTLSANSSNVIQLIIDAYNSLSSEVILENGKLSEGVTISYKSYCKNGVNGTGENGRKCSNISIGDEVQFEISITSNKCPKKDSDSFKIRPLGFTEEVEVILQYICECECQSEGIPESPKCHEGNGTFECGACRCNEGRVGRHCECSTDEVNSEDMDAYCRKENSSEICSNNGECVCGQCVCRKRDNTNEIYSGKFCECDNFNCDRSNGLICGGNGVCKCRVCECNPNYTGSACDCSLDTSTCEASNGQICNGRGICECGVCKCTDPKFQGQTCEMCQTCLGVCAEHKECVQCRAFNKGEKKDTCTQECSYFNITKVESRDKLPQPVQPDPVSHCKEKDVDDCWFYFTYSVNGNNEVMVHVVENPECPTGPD

Binder: GCGHPRTDLASLAKRCRRDSDCPGACICRGNGYCG (also called graft 2) [G2]
- binding result [1]: binds

B1: R02 (peptide)
peptide: GCRSLARTDLDHLRGRCRRDSDCPGACICRGNGYCG
notes: also called activity '2' in the R0 scaffold
- Kd [2]: 3.2 nM
- binding result [3]: no binding
- binding result [4]: no binding
- binding result [5]: no binding

B2: R12 (peptide)
peptide: B1 peptide with S21R
notes: also called activity '2' in arginine-rich scaffold R1
- binding result [6]: binds

B3: E42 (peptide)
peptide: B1 peptide with R18E, R19E, R30E
notes: also called activity '2' in glutamic acid-rich scaffold E4
- binding result [6]: binds

B4: E12 (peptide)
peptide: B1 peptide with R30E
notes: also called activity '2' in glutamic acid-rich scaffold E1
- binding result [6]: binds

B5: R32 (peptide)
peptide: B1 peptide with S21R, P24R
notes: also called activity '2' in arginine-rich scaffold R3
- binding result [6]: binds

B6: R22 (peptide)
peptide: B1 peptide with P24R
notes: also called activity '2' in arginine-rich scaffold R2
- binding result [6]: binds

B7: R03 (peptide)
peptide: B1 peptide with S4L, L5V, A6F
notes: also called activity '3' in the R0 scaffold
- Kd [2]: 3.6 nM
- binding result [3]: no binding
- binding result [4]: no binding
- binding result [5]: no binding

B8: S01 (peptide)
peptide: GCILNMRTDLGTLLFRCSSDSDCLAECICLENGFCG
notes: It says only that activity '1' was tested in the S0 scaffold; also called activity '1' in the S0 scaffold
- Kd [2]: 6.5 nM
- binding result [3]: no binding
- binding result [4]: no binding
- binding result [5]: no binding

Binder: GCILNRRTDLGTLLFRCRRDSDCPGACICRGNGYCG (modifications not checked) [MΔR]
- Kd [7]: 0.95 nM

Binder: GCILNMRTDLGTLLFRCRRDSDCPGACICRGNGYCG (also called wild-type R01; wt) [R01]
- Kd [8]: 1.07 nM
- Kd [2]: 3.6 nM
- binding result [5]: no binding

Binder: GCILNGRTDLGTLLFRCRRDSDCPGACICRGNGYCG (modifications not checked) [MΔG]
- Kd [7]: 1.24 nM

Binder: GCILNMRDTLGTLLFRCRRDSDCPGACICRGNGYCG (also called scrambled R01) [scR01]
- binding result [9]: no binding (tested: 100 nM and 300 nM integrin αvβ6)

Binder: GCILNWRTDLGTLLFRCRRDSDCPGACICRGNGYCG (also called R01 tryptophan substitution) [MΔW]
- Kd [8]: 1.69 nM

Binder: {DOTA}-GCRSLARTDLDHLRGRCRRDSDCPGACICRGNGYCG (cysteine pairing not given here; also: 64Cu complex of DOTA, also called 64Cu-DOTA-labeled R02) [64Cu-DOTA-R02]
- binding result [10]: binds

Binder: GCGGHPRTDLASLAKRCRRDSDCPGACICRGNGYCG (also called graft 3) [G3]
- binding result [1]: binds

B9: S02 (peptide)
peptide: GCRSLARTDLDHLRDRCSSDSDCLAECICLENGFCG
modifications: disulfide (positions not given here); not fully specified (bridges); also: three disulfide bonds, places not given here
notes: also called activity '2' in the S0 scaffold
- Kd [2]: 6 nM
- binding result [3]: no binding
- binding result [4]: no binding
- binding result [5]: no binding

B10: S03 (peptide)
peptide: B9 peptide with S4L, L5V, A6F, D15G
notes: It says only that activity '3' was tested in the S0 scaffold; The chain is composed here from the loop of R03 and the scaffold of S02, and the residue limits were counted by me; also called activity '3' in the S0 scaffold
- Kd [2]: 3.1 nM
- binding result [3]: no binding
- binding result [4]: no binding
- binding result [5]: no binding

Binder: GCRSLARDTLDHLRDRCSSDSDCLAECICLENGFCG (also called scrambled S02) [scS02]
- binding result [9]: no binding (tested: 100 nM and 300 nM integrin αvβ6)
